The results in this text go back to patent publication US20050074758A1.

The target of assay [1] is prokineticin receptor(s) of guinea pig ileum (ileal membranes; ileal longitudinal smooth muscle) (guinea pig). In words: cell-based or functional assay.
Assay [2] shares this target. In words: displacement of 125I-prokineticin 1 (20 pM) from guinea pig ileal membranes, two-site model, low-affinity site.
Assay [3] has as its target prokineticin receptor expressed endogenously on M2A7 melanoma cells (ATCC CRL-2500). In words: cell-based or functional assay.
Assay [4] concerns the target prokineticin receptor(s) of guinea pig ileum (ileal membranes; ileal longitudinal smooth muscle) (guinea pig). In words: displacement of 125I-prokineticin 1 (20 pM) from guinea pig ileal membranes, two-site model, high-affinity site.
For assay [5] the target is unchanged. In words: competition radioligand binding on guinea pig ileal membranes, filtration; displaced tracer 125I-prokineticin 1 (20 pM).
The target is the same in assay [6]. In words: saturation binding of 125I-prokineticin 1 to guinea pig ileal membranes, Scatchard analysis, two-site model, low-affinity site.
For assay [7] the target is unchanged. In words: saturation binding of 125I-prokineticin 1 to guinea pig ileal membranes, two-site model, high-affinity site.
For assay [8] the target is unchanged. In words: saturation binding of 125I-prokineticin 1 to guinea pig ileal membranes, Scatchard analysis, two-site model, high-affinity site.
Assay [9] has the same target. In words: saturation binding of 125I-prokineticin 1 to guinea pig ileal membranes, two-site model, low-affinity site.
Assay [10] has the same target. In words: displacement of 125I-prokineticin 1 (20 pM) from guinea pig ileal membranes, high-affinity site.
The target is the same in assay [11]. In words: displacement of 125I-prokineticin 1 (20 pM) from guinea pig ileal membranes, low-affinity site.

B1: chimeric prokineticin 12 (exons 1 and 2 of prokineticin 1, exon 3 of prokineticin 2) (ligand)
chain: AVITGACERDVQCGAGTCCAISLWLRGLRMCTPLGREGEECHPGSHKVPFFGRRMHHTCPCLPGLACLRTSFNRFICLAQK
In turn, B1 returned a time constant to midway contraction of ileal strips in assay [1] of 40 min.

B2: recombinant refolded human prokineticin 1 (unlabeled), 6×His-tagged (ligand)
chain: AVITGACERDVQCGAGTCCAISLWLRGLRMCTPLGREGEECHPGSHKVPFFRKRKHHTCPCLPNLLCSRFPDGRYRCSMDLKNINFHHHHHH
Take B2: the Ki came to 1.5 nM in assay [2] and 0.008 nM in [4]. This molecule had an ED50 of contraction of guinea-pig ileum longitudinal muscle in assay [1] of 0.46 nM. Further, in [1], the time constant to midway contraction of ileal strips came to 15 min. Further, the EC50 of calcium mobilization in M2A7 melanoma cells (FLIPR) in assay [3] came out at 12 nM. In addition, the IC50 (read off the curve) in assay [5] was determined as 5 nM.

B3: 125I-prokineticin 1 (iodinated recombinant human prokineticin 1) (ligand)
chain: B2 chain
modifications: 125I label by the iodogen method; iodinated residue(s) not stated
As to B3, the Kd in assay [6] amounted to 0.227 nM; in assay [8], 0.005 nM. Moreover, the results for the Bmax (fmol/mg of protein) in assay [7] and in assay [9] were 7.8 and 26.4, respectively.

B4: chimeric prokineticin 21 (exons 1 and 2 of prokineticin 2, exon 3 of prokineticin 1) (ligand)
chain: AVITGACDKDSQCGGGMCCAVSIWVKSIRICTPMGKLGDSCHPLTRKVPFFRKRKHHTCPCLPNLLCSRFPDGRYRCSMDLKNINF
In [1], B4 yielded an EC50 of ileal contraction, fold against prokineticin 1 or prokineticin 2 of 8 fold and a time constant to midway contraction of ileal strips of 40 min.

B5: recombinant refolded human prokineticin 2 (unlabeled), 6×His-tagged (ligand)
chain: AVITGACDKDSQCGGGMCCAVSIWVKSIRICTPMGKLGDSCHPLTRKVPFFGRRMHHTCPCLPGLACLRTSFNRFICLAQKHHHHHH
B5 registered an inhibition constant (Ki) in assay [10] of 0.0042 nM. In [1], this molecule showed an ED50 of contraction of guinea-pig ileum longitudinal muscle of 0.9 nM and a time constant to midway contraction of ileal strips of 15 min. Moreover, the EC50 of calcium mobilization in M2A7 melanoma cells (FLIPR) in assay [3] is 21 nM. In assay [5], the IC50 (read off the curve) is 4 nM. Besides, in assay [11], the Ki came to 1.22 nM.
